From US20230203161A1 (TENEOBIO, published 2023)

B1: anti-PSMA heavy-chain antibody (HCAb) clone ID 345510 (antibody, V domains shown)
VH: QVQLVESGGGVVQPGRSLRLSCAASGFSFSSYGMHWVRQAPGKGLEWVAVIWYDGSNKYYADSVKGRFTISRDNSKNTMYLQMNSLRAEDTAVYYCAREPRIGYYYESSGYYSLDYRGQGTLVTVSS
notes: Heavy chain-only antibody (UniAb)
B2: monoparatopic PSMA×CD3 bispecific antibody 346181×CD3 (bispecific antibody)
chain 1: QLQLQESGPGLVKPSETLSLTCTVSGGSISSSNYFWGWIRQSPGKGLEWIGSIDYSGYTYYNPSLKSRVTISVDTSKNQFSLKLSSVTAADTAVYNCARHKAATADFDYRGQGTLVTVSS
chain 2: EVQLVESGGGLVQPGRSLRLSCAASGFTFDDYAMHWVRQAPGKGLEWVSGISWNSGSIGYADSVKGRFTISRDNAKNSLYLQMNSLRAEDTALYYCAKDSRGYGDYRLGGAYWGQGTLVTVSS
chain 3: not shown
B3: biparatopic anti-PSMA×CD3 antibody 350123×CD3 (bispecific antibody)
chain 1: QLQLQESGPGLVKPSETLSLTCTVSGGSISSSNYFWGWIRQSPGKGLEWIGSIDYSGYTYYNPSLKSRVTISVDTSKNQFSLKLSSVTAADTAVYNCARHKAATADFDYRGQGTLVTVSSGGGGSGGGGSQVQLVESGGGVVQPGRSLRLSCAASGFSFSRYGMHWVRQAPGKGLEGVAVIWYDGSNRYYADSVKGRFTISRDNSKNTLYLQMNSLRAEDTAVYYCAREPRIGYYYESSGYYSLDYRGQGTLVTVSS
chain 2: B2 chain 2
chain 3: not shown

How the values were obtained:
[1] = biological target: T1, human Prostate Specific Membrane Antigen (PSMA) (human, UniProt Q04609 1-750); experiment: flow cytometry on LNCaP cells
T1 construct: whole, on cells; also called Glutamate Carboxypeptidase II; FOLH1
T1 sequence (Q04609 whole entry): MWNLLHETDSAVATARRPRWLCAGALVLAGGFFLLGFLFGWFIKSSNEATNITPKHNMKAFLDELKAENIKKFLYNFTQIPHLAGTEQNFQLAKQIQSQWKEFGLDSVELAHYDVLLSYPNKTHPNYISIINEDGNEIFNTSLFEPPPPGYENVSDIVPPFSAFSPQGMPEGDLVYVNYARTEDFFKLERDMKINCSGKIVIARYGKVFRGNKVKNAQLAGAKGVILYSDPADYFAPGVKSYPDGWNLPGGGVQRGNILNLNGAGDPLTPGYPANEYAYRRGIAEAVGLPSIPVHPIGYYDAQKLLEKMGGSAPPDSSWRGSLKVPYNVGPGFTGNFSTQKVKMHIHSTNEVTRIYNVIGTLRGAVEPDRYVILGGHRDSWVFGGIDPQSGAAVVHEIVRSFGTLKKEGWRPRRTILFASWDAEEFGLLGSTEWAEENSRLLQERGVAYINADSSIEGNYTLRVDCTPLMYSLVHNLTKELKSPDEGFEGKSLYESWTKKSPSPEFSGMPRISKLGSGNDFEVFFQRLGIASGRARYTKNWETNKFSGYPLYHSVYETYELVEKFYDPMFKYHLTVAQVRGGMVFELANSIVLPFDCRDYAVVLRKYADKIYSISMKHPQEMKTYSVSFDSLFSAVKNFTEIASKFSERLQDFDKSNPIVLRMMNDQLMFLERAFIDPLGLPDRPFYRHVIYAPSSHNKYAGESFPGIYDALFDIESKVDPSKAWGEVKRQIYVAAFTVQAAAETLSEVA
Experimental: Briefly, 50,000 target cells were stained with a dilution series of purified UniAbs™ for 30 minutes at 4° C. Following incubation, the cells were washed twice with flow cytometry buffer (1×PBS, 1% BSA, 0.1% NaN₃) and stained with goat F(ab′)₂ anti-human IgG conjugated to R-phycoerythrin (PE) (Southern Biotech, cat. #2042-09) to detect cell-bound antibodies. After a 20-minute incubation at 4° C., the cells were washed twice with flow cytometry buffer and the mean fluorescence intensity (MFI) was measured by flow cytometry. The MFI of cells stained with secondary antibody alone were used for determination of background signal and binding of each antibody was converted to fold over background. […] In some experiments EC50 values were calculated using GraphPad Prism 7.
Column 1 indicates the clone ID of the HCAb. Column 2 indicates binding to LNCaP cells measured as fold over the background MFI signal.

[2] = biological target: T1, human Prostate Specific Membrane …; experiment: cell binding, flow cytometry, PC3-PSMA cells
[3] = biological target: T1, human Prostate Specific Membrane …; experiment: cell binding, flow cytometry, 22Rv1 cells
[4] = biological target: T1, human Prostate Specific Membrane …; experiment: cell-based or functional assay
[5] = biological target: T1, human Prostate Specific Membrane …; experiment: cell binding, flow cytometry, LNCAP cells
[6] = biological target: T1, human Prostate Specific Membrane …; experiment: cell binding, flow cytometry, MDA-PCa-2b cells

| Binder | fold over background MFI [1] [fold over background] | EC50 [2] [nM] | EC50 [3] [nM] | IFNγ EC50, 22Rv1 cells [4] [nM] | IFNγ EC50, LNCAP cells [4] [nM] | IFNγ EC50, MDA-PCa-2b cells [4] [nM] | IFNγ EC50, PC3-PSMA cells [4] [nM] | IL-2 EC50, LNCAP cells [4] [nM] | IL-2 EC50, MDA-PCa-2b cells [4] [nM] | IL-2 EC50, PC3-PSMA cells [4] [nM] | Kill EC50, 22Rv1 cells, resting T-cells [4] [nM] | Kill EC50, LNCAP cells, resting T-cells [4] [nM] | Kill EC50, MDA-PCa-2b cells, resting T-cells [4] [nM] | Kill EC50, PC3-PSMA cells, resting T-cells [4] [nM] | EC50 [5] [nM] | EC50 [6] [nM] |
| --- | --- | --- | --- | --- | --- | --- | --- | --- | --- | --- | --- | --- | --- | --- | --- | --- |
| B1 | 13 |  |  |  |  |  |  |  |  |  |  |  |  |  |  |  |
| B2 |  | 30 | 58 | 174 | 63 | 116 | 10.1 | 575 | 38.5 | 4.1 | 52.8 | 14.6 | 23.6 | 3.7 | 17 | 28 |
| B3 |  | 6 | 3 | 380 | 3.29 | 0.9 | 1.01 | 3.73 | 1.11 | 1.1 | 0.42 | 0.84 | 0.41 | 0.4 | 2 | 2 |
